Results as given in US20120165249A1.

Experiments:
[1] = target: HIV-1 CA protein (capsid) (HIV-1); assay: cell-based or functional assay
[2] = target: HIV-1 gag polyprotein (HIV-1); assay: cell-based or functional assay

Substance: NYAD-1 (peptide)
- inhibition of mature-like particle formation from purified CA protein in vitro (EM) (fold molar equivalent) [1]: 1
- release of immature-like particles from gag-transfected 293T cells (p24 ELISA) (fold reduction at 50 µM) [2]: 72
- release of mature-like particles from gag-pol transfected 293T cells (p24 ELISA) (fold reduction at 50 µM) [2]: 67
